Experiment [1] deals with Dipeptidyl peptidase 9 (DPP9), recombinant wild-type (human) (UniProt Q86TI2). The experiment is described as follows: enzyme kinetics, GP-AMC hydrolysis by 25 nM recombinant DPP9 with 0, 5 or 20 µM peptide.
Experiment [2] shares this target. The experiment is described as follows: cell-based or functional assay.
The target in experiment [3] is Dipeptidyl peptidase 8 (DPP8), recombinant (human) (UniProt Q6V1X1). The experiment is described as follows: ratio of Ki values, DPP8 against DPP9.
Dipeptidyl peptidase 8 (DPP8), recombinant (human), sequence (Q6V1X1 whole entry, form in doubt): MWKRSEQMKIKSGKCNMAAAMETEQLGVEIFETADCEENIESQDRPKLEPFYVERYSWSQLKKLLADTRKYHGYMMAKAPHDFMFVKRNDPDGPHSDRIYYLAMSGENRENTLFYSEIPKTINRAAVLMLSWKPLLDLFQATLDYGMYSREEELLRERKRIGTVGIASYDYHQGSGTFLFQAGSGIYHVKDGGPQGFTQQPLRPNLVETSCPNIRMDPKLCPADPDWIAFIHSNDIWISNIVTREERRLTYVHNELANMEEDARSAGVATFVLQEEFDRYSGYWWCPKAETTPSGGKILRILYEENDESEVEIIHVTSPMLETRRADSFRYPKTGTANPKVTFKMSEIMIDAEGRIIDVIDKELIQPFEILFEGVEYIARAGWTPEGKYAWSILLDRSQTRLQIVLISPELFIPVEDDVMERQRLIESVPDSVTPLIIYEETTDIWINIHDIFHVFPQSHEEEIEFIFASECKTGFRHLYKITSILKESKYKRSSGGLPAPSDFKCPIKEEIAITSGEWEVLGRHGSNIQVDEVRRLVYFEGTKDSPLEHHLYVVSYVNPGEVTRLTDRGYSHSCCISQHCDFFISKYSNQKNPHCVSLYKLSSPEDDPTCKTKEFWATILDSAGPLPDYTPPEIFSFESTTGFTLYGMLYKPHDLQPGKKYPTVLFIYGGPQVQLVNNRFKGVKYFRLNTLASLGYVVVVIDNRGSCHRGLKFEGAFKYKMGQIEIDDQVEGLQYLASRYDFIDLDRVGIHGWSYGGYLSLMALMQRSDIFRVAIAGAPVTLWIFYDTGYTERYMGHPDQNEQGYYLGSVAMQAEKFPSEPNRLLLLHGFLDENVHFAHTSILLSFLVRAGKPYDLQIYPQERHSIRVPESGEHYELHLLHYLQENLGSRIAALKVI
Experiment [4] concerns the target Dipeptidyl peptidase 9 (DPP9), recombinant wild-type (human) (UniProt Q86TI2). Nature of the experiment: ratio of Ki values for DPP9, reference EIL peptide.
Experiment [5] deals with Dipeptidyl peptidase 8 (DPP8), recombinant (human) (UniProt Q6V1X1). Nature of the experiment: enzyme kinetics, GP-AMC hydrolysis by recombinant DPP8.
The target in experiment [6] is Dipeptidyl peptidase 9 (DPP9), recombinant wild-type (human) (UniProt Q86TI2). Nature of the experiment: enzyme kinetics, GP-AMC hydrolysis by recombinant DPP9.
Experiment [7] has as its target Dipeptidyl peptidase 8 (DPP8), recombinant (human) (UniProt Q6V1X1). Nature of the experiment: cell-based or functional assay.

Dipeptidyl peptidase 9 (DPP9), recombinant wild-type (human), sequence (Q86TI2 other isoform, or with tags, fused parts or gaps limits assumed, form in doubt): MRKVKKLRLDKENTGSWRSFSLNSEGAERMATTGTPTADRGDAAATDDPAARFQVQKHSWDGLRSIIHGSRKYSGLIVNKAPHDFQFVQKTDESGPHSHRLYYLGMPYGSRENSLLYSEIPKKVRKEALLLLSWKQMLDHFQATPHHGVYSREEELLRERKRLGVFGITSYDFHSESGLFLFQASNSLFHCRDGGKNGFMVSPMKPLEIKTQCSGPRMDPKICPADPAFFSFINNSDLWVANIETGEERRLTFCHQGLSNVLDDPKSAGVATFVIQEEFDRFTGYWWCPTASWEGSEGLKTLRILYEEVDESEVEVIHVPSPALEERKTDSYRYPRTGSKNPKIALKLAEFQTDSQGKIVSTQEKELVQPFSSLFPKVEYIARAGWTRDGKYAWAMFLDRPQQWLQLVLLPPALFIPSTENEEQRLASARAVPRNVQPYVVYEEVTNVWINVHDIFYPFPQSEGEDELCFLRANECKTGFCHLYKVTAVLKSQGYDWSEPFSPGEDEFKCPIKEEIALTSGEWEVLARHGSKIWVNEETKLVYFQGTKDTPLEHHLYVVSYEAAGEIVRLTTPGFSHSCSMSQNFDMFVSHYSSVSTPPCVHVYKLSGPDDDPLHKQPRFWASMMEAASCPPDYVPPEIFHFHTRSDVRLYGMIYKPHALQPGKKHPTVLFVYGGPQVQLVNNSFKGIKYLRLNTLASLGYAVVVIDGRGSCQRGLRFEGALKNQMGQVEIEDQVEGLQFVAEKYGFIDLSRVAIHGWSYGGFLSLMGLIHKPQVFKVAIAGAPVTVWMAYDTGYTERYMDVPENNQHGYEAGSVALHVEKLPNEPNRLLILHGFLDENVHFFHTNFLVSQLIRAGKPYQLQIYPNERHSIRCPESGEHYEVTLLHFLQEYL

As a reminder, the Ki is a measure of affinity in units of concentration, obtained from inhibition or displacement. SLRFLFEG (SEQ ID NO: 37) (peptide): in experiment [1], the Ki came to 2000 nM. Further, in experiment [2], the % DPP9 activity (Mean), 10 µM peptide was determined as 24.1%.

On to SLRFLYEG (SEQ ID NO: 38) (peptide), for which, in experiment [3], the fold lower affinity compared to DPP9 came out at 9 fold. In addition, in experiment [2], the % DPP9 activity (Mean), 10 µM peptide was 10.9%. In addition, the fold increased efficiency compared to the EIL peptide in experiment [4] turned out to be 18.5 fold. In addition, the Ki in experiment [5] is 3600 nM; in experiment [6], 400 nM.

Consider SUMO1 (from UniProt P63165 1-97), for which the AMC release from GP-AMC in the unbound fraction (depleted lysates) in experiment [7] and in experiment [2] was 40% each time.
